Laboratory results taken from patent US20050214212A1.

Columns and labels:
[1] = molecular target: CD44v6 (human CD44 variant isoform containing exon v6) on human tumour cells (human) (UniProt P16070); test: immunoreactivity assay on fixed UM-SCC-11B cells, linear extrapolation to infinite antigen excess, experiment 3
[2] = molecular target: glutathione-S-transferase fusion protein containing domains v3-v10 of human CD44 (human) (UniProt P16070); test: SPR (BIAcore 2000), GST/CD44v3-v10 immobilised on CM5
glutathione-S-transferase fusion protein containing domains v3-v10 of human CD44 (human), sequence (P16070 267-604): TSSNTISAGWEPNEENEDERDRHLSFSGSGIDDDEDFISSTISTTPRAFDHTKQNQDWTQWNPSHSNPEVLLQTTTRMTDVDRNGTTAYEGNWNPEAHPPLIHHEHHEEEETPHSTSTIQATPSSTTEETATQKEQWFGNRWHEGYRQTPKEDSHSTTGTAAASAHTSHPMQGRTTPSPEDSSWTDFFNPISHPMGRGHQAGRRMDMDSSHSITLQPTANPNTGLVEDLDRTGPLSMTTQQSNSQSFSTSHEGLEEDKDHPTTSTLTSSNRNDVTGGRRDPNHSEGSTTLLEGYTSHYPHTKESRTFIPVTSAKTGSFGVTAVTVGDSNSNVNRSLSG

[3] = molecular target: CD44v6 (human CD44 variant isoform containing exon v6) on human tumour cells (human) (UniProt P16070); test: immunoreactivity assay of clinical 99mTc-/186Re-MAG3-labelled BIWA 4 batches on fixed UM-SCC-11B cells
[4] = molecular target: CD44v6 (human CD44 variant isoform containing exon v6) on human tumour cells (human) (UniProt P16070); test: immunoreactivity assay, 186Re-MAG3-labelled MAb on fixed UM-SCC-11B cells
[5] = molecular target: CD44v6 (human CD44 variant isoform containing exon v6) on human tumour cells (human) (UniProt P16070); test: immunoreactivity assay, 131I-labelled MAb on glutaraldehyde-fixed UM-SCC-11B cells, experiment 3
[6] = molecular target: glutathione-S-transferase fusion protein containing domains v3-v10 of human CD44 (human) (UniProt P16070); test: SPR (BIAcore 2000), GST/CD44v3-v10 immobilised on CM5, MAb 8-67 nM injected
[7] = molecular target: CD44v6 (human CD44 variant isoform containing exon v6) on human tumour cells (human) (UniProt P16070); test: immunoreactivity assay on fixed UM-SCC-11B cells, linear extrapolation to infinite antigen excess, experiment 2
[8] = molecular target: CD44v6 (human CD44 variant isoform containing exon v6) on human tumour cells (human) (UniProt P16070); test: immunoreactivity assay, 131I-labelled MAb on glutaraldehyde-fixed UM-SCC-11B cells, experiment 2
[9] = molecular target: glutathione-S-transferase fusion protein containing domains v3-v10 of human CD44 (human) (UniProt P16070); test: ratio of affinities from SPR on GST/CD44v3-v10
[10] = molecular target: CD44v6 (human CD44 variant isoform containing exon v6) on human tumour cells (human) (UniProt P16070); test: immunoreactivity assay, 125I-labelled MAb on glutaraldehyde-fixed UM-SCC-11B cells, experiment 3

Binder	Binding Extrapolated (%) (immunoreactive fraction) [1]	Kd relative to murine BIWA 1 [2]	immunoreactive fraction [3] [%]	immunoreactive fraction [4] [%]	Binding to 5 × 10^6 cells (%) [5] [%]	Kd [6] [nM]	koff [6] [s⁻¹]	kon [6] [M⁻¹ s⁻¹]	Binding Extrapolated (%) (immunoreactive fraction) [7]	Binding to 5 × 10^6 cells (%) [8] [%]	fold lower affinity than cMAb BIWA 2 [9] [fold]	fold lower affinity than hMAb BIWA 8 [9] [fold]	Binding to 5 × 10^6 cells (%) [10] [%]
hMAb BIWA 4 (bivatuzumab), humanised CDR-grafted antibody without framework modifications (antibody, human IgG1, kappa, V domains shown) VH: EVQLVESGGGLVKPGGSLRLSCAASGFTFSSYDMSWVRQAPGKGLEWVSTISSGGSYTYYLDSIKGRFTISRDNAKNSLYLQMNSLRAEDTAVYYCARQGLDYWGRGTLVTVSS VL: EIVLTQSPATLSLSPGERATLSCSASSSINYIYWYQQKPGQAPRLLIYLTSNLASGVPARFSGSGSGTDFTLTISSLEPEDFAVYYCLQWSSNPLTFGGGTKVEIKR	74.5	10.5	> 80	> 75	77.3	3.4	0.00022	65000	82.3	77.4	14	4	
hMAb BIWA 8, humanised CDR-grafted antibody with framework modifications (antibody, human IgG1, kappa, V domains shown) VH: EVQLVESGGGLVKPGGSLRLSCAASGFTFSSYDMSWVRQAPGKGLEWVSTISSGGSYTYYLDSIKGRFTISRDNAKNSLYLQMNSLRAEDTAVYYCARQGLDYWGRGTLVTVSS VL: EIVLTQSPATLSLSPGERATLSCSASSSINYIYWLQQKPGQAPRILIYLTSNLASGVPARFSGSGSGTDFTLTISSLEPEDFAVYYCLQWSSNPLTFGGGTKVEIKR	92.1	2.6		> 75		0.84	6.3e-05	75000					91.8
